One block for each binder: values may come before it. No end group written: not given here.
Assays:
[1] = target: T1, human chloride intracellular channel 1 (human, UniProt O00299 1-241); assay: cell-based or functional assay
[2] = target: T1, human chloride intracellular channel 1; assay: cell-based or functional assay; remark: listed apart in the source

Reporter Ratio (A5T4 reporter line, IL-4 induced germline epsilon transcription) [2]: 1.22
Binder: LYTSILLHGATTASMTKPAR [peptide DL03LA]

Reporter Ratio (A5T4 reporter line, IL-4 induced germline epsilon transcription) [2]: 1.77
Binder: LYTSILLHGATTASMTAALA [peptide DL03KP]

More lines, now with the values behind:

B1: peptide DL03wt (peptide)
peptide: LYTSILLHGATTASMTKPLA
modifications: also: expressed as BFP fusion (BFP, alpha-helical linker, peptide) in GAL4 bait vector, fusion sequences not given here
endogenous epsilon inhibition ratio (TAQMAN quantitative PCR, +IL-4/+Dox to +IL-4/-Dox) [1]: 2.11
reporter ratio (original library clone screen, A5T4 cells) [1]: 1.32
Reporter Ratio (A5T4 reporter line, IL-4 induced germline epsilon transcription) [2]: 1.5

Binder: LYTSAALHGATTASMTKPLA [peptide DL03IL]
Reporter Ratio (A5T4 reporter line, IL-4 induced germline epsilon transcription) [2]: 1.16

— patent US20040014148A1 (RIGEL PHARMACEUTICALS, published 2004)
